According to patent US20200407445A1 (ITEOS THERAPEUTICS, published 2020):

T1: human TIGIT expressed on cells (human, UniProt Q495A1 22-244)
T1 construct: whole, on cells; on Jurkat E6.1 cells transduced with human TIGIT, on Promega TIGIT Effector cells or on human primary T cells; the assay field says which; also called hTIGIT; Jurkat-hTIGIT
T1 sequence (looked up): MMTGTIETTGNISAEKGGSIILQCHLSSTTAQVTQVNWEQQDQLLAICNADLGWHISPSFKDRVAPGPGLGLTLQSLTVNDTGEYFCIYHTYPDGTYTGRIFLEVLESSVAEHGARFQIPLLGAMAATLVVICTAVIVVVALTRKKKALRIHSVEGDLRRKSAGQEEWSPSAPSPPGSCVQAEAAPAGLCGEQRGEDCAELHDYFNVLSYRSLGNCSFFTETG

T2: recombinant human TIGIT protein (construct not stated) (human, UniProt Q495A1 22-141, limits assumed)
T2 construct: also called hTIGIT (Creative Biomart); recombinant TIGIT protein
T2 sequence (looked up): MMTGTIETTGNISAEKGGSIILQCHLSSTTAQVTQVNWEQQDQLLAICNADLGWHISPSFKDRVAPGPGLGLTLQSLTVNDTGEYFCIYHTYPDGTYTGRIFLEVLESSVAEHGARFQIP

T3: Human TIGIT-His (human, UniProt Q495A1 22-141, biotinylated in the ForteBio Fab assay)
T3 construct: bought (Creative Biomart); also called Biotinylated Human TIGIT HIS; TIGIT-His monomer; not shown: His tag
T3 sequence (looked up): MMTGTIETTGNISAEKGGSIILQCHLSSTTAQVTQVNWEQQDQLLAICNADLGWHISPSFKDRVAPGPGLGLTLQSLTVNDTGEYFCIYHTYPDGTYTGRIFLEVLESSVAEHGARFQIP

T4: Mouse TIGIT-Fc (mouse, UniProt P86176 29-148, limits assumed)
T4 construct: not shown: Fc part
T4 sequence (looked up): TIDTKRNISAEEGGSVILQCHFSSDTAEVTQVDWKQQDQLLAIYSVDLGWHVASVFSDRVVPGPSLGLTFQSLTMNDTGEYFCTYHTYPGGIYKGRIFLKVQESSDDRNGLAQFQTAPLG


How the values were obtained:
[1] = molecular target: T1, human TIGIT expressed on cells; experiment: flow cytometry, primary CD8+ T cells of healthy human PBMC, MFI
Procedure: Isolated human PBMCs from healthy volunteers were analysed for binding by antagonist anti-TIGIT antibodies. Cells were distributed at 1×10⁵ cells per well. Cells were incubated with anti-CD16 (Clone 3G8, BioLegend 302002), CD32 (Clone FLI8.26, BD Bioscience 557333) and CD64 (BD Bioscience 555525) at room temperature for 10 min, and the indicated anti-human TIGIT antibody clones were directly added at a final concentration of 8; 4; 2; 1; 0.5; 0.25; 0.125; 0.062; 0.031; 0.016; 8×10⁻³ and 4×10⁻³ nM in FACS buffer and incubated for 20 min at 4° C. […] Then, cells were washed and incubated with the following antibodies and LVD mix: anti-CD4-PercP-Cy5.5 (clone A161A1, BioLegend 357414); anti-CD8-BV510 (clone SK1, BD Bioscience 563919) and LVD efluor 660 (eBioscience 65-0864-18).
The EC50 values for binding to CD8+ human primary T cells were calculated using the MFI signal on living TIGIT+CD8+ T cells.

[2] = molecular target: T1, human TIGIT expressed on cells; experiment: flow cytometry, primary CD8+ T cells of cancer patients' PBMC, MFI
Procedure: Cells were distributed at 1×10^5 cells per well. […] Then, cells were washed and incubated with the following antibodies and life viability dye (LVD) mix: anti-CD4-PercP-Cy5.5 (clone A161A1, BioLegend 357414); anti-CD8-BV510 (clone SK1, BD Bioscience 563919) and LVD efluor 520 (eBioscience 65-0867-14). Cells were washed and fixed and surface staining was quantified using BD LSR Fortessa. Flow cytometry data was analysed using FlowJo V10.1. TIGIT MFI on gated LVD-TIGIT+CD8+ cells was used to calculate EC50 values.

[3] = molecular target: T1, human TIGIT expressed on cells; experiment: flow cytometry on Jurkat-hTIGIT
Procedure: Antibodies were incubated with the cells for 20 min at 4° C. in FACS buffer. […] Fluorescence intensity was analysed using LSR BD Fortessa and cell binding was recorded as the median fluorescence intensity of PE in cells expressing TIGIT at their surface.
The half-maximal concentration of binding (EC50) to Jurkat-hTIGIT was calculated using a four-variable curve-fit equation in Prism.

[4] = molecular target: T2, recombinant human TIGIT protein …; experiment: Biacore T200, IgG captured by anti-human Fc, antigen in solution, 1:1 kinetic model
Procedure: Biosensor analysis was conducted at 25° C. in a HBS-EP buffer system (10 mM HEPES pH 7.3, 150 mM NaCl, 3 mM EDTA, 0.05% Tween20) using Biacore T200 technology, CMS sensor chip (run at Novalix, France). The sample hotel was maintained at 8° C. Goat anti-human IgG capture antibody (Fcγ fragment specific, Jackson ImmunoResearch Laboratories) was immobilized (10000 RU) to both flow cells of the sensor chip using standard amine coupling chemistry. This surface type provided a format for reproducibly capturing fresh analysis antibody after each regeneration step. Flow cell 2 was used to analyse captured antibody while flow cell 1 was used as a reference flow cell. […] Two blank (buffer) injections also were run and used to assess and subtract system artefacts. The association (300 s) and dissociation (600 s) phases for all antigen concentrations were performed at a flow rate of 30 uL/min. The surface was regenerated with three sequential injections (15 s, 15 s and 60 s) of 10 mM glycine-HCl, pH 1.5. The obtained sensorgrams were fitted globally to a 1:1 model (assuming the same kinetic values for all applied concentrations).

[5] = molecular target: T1, human TIGIT expressed on cells; experiment: flow cytometry, competition with CD155-His (15 ug/ml) on Jurkat-hTIGIT
[6] = molecular target: T1, human TIGIT expressed on cells; experiment: cell-based or functional assay
[7] = molecular target: T1, human TIGIT expressed on cells; experiment: cell-based or functional assay; remark: listed apart in the source
Cyno TIGIT-Fc = molecular target: T5, Cyno TIGIT-Fc (cynomolgus, UniProt A0A7N9I9V4 89-209); experiment: ForteBio BLI, Fab KD, monovalent
T5 construct: not shown: Fc part
T5 sequence (A0A7N9I9V4 entry or part of it): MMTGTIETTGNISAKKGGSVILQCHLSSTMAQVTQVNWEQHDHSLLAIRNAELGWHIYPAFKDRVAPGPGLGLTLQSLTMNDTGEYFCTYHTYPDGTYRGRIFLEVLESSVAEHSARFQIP

Human TIGIT-His = molecular target: T3, Human TIGIT-His; experiment: ForteBio BLI, Fab KD, monovalent
Mouse TIGIT-Fc = molecular target: T4, Mouse TIGIT-Fc; experiment: ForteBio BLI, Fab KD, monovalent

EC50 [1] [nM] | Fold change of EC50 over EC50 of best clone (31282_wu) [1] [fold] | EC50 [2] [nM] | Fold change of EC50 over EC50 of best clone (31282) [2] [fold] | EC50 [3] [nM] | Fold change of EC50 over EC50 of best clone (31282_wu) [3] [fold] | Kd [4] [nM] | koff [4] [s⁻¹] | Fold change of IC50 over IC50 of best clone (31282_up) [5] [fold] | IC50 [5] [nM] | EC50 (nM), luciferase, Jurkat-hTIGIT [6] [nM] | Fold change of EC50 over EC50 of best clone (31282_up) [6] [fold] | Induction over Isotype control (fold change), luciferase, Jurkat-hTIGIT + CD155 aAPC/CHO-K1 [6] [fold] | EC50 (nM), IFNg, human primary CD8+ T cells [7] [nM] | Fold change of EC50 over EC50 of best clone (31282_wu) [7] [fold] | Induction over isotype control (fold change), IFNg, human primary CD8+ T cells + CD155 aAPC/CHO-K1 [7] [fold] | Kd (Cyno TIGIT-Fc) [nM] | Kd (Human TIGIT-His) [nM] | Kd (Mouse TIGIT-Fc) [nM] | Binder
0.38 | 2 | 0.33 | 2.7 | 0.17 | 1.6 | 2.49 | 0.0131 | 1.6 | 0.06 | – | – | – | – | – | – | – | – | – | TIG1 (comparative anti-TIGIT antibody, human IgG1) (antibody, V domains shown, from WO2017/152088; made in HEK cells as human IgG1) VH: DVQLVESGGGLVQPGGSRKLSCAASGFTFSNFGMHWVRQAPEKGLEWVAFISSGSSSIYYADTVKGRFTISRDNPKNTLFLQMTSLRSEDTAMYYCARMRLDYYAMDYWGQGTSVTVSS VL: DVQITQSPSYLAASPGETITINCRASKSISKYLAWYQEKPGKTNKLLIYSGSTLQSGIPSRFSGSGSGTDFTLTISSLEPEDFAMYYCQQHNEYPWTFGGGTKLEIK
0.39 | 2 | 0.18 | 1.5 | 0.13 | 1.2 | 0.067 | 0.000209 | 1.7 | 0.07 | 5.3 | 1.6 | 6.7 | 0.3 | 2.3 | 1.6 | – | – | – | 31C6 (MEB125.31C6.A1.205 VH4/VL1; comparative anti-TIGIT antibody, human IgG1) (antibody, V domains shown, from WO2016/028656; made in HEK cells as human IgG1; also called 3106 (as the text prints it)) VH: EVQLVQSGAEVKKPGASVKVSCKASGYTFSSYVMHWVRQAPGQGLEWIGYIDPYNDGAKYAQKFQGRVTLTSDKSTSTVYMELSSLRSEDTAVYYCARGGPYGWYFDVWGQGTTVTVSS VL: DIQMTQSPSSLSASVGDRVTITCRASEHIYSYLSWYQQKPGKAPKLLIYNAKTLAEGVPSRFSGSGSGTDFTLTISSLQPEDFATYYCQHHFGSPLTFGQGTRLEIK
– | – | – | – | – | – | – | – | – | – | – | – | – | – | – | – | 1.26 | 0.703 | 91.8 | Fab of anti-TIGIT clone 29478 (Fab, V domains shown) VH: EVQLVESGGGVVQPGRSLRLSCAASGFTFESYGMVWVRQAPGKGLEWVASILYDGSNRYYADSVKGRFTVSRDNSKNTLYLQMNSLRAEDTAVYYCARVSYYYDSVELRWAEYFQHWGQGTLVTVSS VL: EIVLTQSPATLSLSPGERATLSCRASQSVSSYLAWYQQKPGQAPRLLIYDASKRATGIPARFSGSGSGTDFTLTISSLEPEDFAVYYCQQVHNFPLTFGGGTKVEIK
– | – | – | – | – | – | – | – | – | – | – | – | – | – | – | – | 9.56 | 0.774 | 85.5 | Fab of anti-TIGIT clone 29513 (Fab, V domains shown) VH: QVQLVQSGAEVKKPGSSVKVSCKASGGTFQNYAISWVRQAPGQGLEWMGVIVPIFGTANYAQKFQGRVTVTADESTSTAYMELSSLRSEDTAVYYCARLHLGQKAYYGMDVWGQGTTVTVSS VL: DIQMTQSPSSLSASVGDRVTITCRASQSISSYLNWYQQKPGKAPKLLIYAASSLQSGVPSRFSGSGSGTDFTLTISSLQPEDFATYYCQQRYVFPPTFGGGTKVEIK
